According to patent publication US8715948:
Entries after “also recorded” stand apart in the source; their conditions may differ.

Key:
[1] = biological target: fibronectin (UniProt P02751)
[2] = biological target: fibrillin-1 (UniProt P35555)
[3] = biological target: human insoluble skin elastin (UniProt P15502)
[4] = biological target: human insoluble aortic elastin (UniProt P15502)
Sequence of human insoluble aortic elastin (P15502 27-786): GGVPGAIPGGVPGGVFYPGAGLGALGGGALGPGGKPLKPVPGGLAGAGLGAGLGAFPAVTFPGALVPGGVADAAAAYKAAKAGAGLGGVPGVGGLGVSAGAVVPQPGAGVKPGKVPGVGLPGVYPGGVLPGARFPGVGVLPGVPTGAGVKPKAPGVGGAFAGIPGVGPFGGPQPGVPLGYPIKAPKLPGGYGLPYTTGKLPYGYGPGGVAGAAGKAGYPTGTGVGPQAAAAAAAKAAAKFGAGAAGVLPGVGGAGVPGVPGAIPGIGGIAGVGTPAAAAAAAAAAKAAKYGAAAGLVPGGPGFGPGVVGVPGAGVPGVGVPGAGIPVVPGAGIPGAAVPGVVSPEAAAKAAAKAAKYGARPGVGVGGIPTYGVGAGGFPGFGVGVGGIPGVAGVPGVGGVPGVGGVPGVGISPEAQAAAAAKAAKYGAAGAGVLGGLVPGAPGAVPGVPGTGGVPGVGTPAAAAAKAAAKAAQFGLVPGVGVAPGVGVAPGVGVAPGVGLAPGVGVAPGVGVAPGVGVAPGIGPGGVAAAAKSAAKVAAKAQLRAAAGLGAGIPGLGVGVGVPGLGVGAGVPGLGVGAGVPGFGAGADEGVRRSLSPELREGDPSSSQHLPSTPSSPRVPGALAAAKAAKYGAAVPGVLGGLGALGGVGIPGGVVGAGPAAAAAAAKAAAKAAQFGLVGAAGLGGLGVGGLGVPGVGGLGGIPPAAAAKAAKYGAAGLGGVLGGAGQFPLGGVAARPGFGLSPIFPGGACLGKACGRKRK

Sequence of fibrillin-1 (P35555 whole entry, looked up): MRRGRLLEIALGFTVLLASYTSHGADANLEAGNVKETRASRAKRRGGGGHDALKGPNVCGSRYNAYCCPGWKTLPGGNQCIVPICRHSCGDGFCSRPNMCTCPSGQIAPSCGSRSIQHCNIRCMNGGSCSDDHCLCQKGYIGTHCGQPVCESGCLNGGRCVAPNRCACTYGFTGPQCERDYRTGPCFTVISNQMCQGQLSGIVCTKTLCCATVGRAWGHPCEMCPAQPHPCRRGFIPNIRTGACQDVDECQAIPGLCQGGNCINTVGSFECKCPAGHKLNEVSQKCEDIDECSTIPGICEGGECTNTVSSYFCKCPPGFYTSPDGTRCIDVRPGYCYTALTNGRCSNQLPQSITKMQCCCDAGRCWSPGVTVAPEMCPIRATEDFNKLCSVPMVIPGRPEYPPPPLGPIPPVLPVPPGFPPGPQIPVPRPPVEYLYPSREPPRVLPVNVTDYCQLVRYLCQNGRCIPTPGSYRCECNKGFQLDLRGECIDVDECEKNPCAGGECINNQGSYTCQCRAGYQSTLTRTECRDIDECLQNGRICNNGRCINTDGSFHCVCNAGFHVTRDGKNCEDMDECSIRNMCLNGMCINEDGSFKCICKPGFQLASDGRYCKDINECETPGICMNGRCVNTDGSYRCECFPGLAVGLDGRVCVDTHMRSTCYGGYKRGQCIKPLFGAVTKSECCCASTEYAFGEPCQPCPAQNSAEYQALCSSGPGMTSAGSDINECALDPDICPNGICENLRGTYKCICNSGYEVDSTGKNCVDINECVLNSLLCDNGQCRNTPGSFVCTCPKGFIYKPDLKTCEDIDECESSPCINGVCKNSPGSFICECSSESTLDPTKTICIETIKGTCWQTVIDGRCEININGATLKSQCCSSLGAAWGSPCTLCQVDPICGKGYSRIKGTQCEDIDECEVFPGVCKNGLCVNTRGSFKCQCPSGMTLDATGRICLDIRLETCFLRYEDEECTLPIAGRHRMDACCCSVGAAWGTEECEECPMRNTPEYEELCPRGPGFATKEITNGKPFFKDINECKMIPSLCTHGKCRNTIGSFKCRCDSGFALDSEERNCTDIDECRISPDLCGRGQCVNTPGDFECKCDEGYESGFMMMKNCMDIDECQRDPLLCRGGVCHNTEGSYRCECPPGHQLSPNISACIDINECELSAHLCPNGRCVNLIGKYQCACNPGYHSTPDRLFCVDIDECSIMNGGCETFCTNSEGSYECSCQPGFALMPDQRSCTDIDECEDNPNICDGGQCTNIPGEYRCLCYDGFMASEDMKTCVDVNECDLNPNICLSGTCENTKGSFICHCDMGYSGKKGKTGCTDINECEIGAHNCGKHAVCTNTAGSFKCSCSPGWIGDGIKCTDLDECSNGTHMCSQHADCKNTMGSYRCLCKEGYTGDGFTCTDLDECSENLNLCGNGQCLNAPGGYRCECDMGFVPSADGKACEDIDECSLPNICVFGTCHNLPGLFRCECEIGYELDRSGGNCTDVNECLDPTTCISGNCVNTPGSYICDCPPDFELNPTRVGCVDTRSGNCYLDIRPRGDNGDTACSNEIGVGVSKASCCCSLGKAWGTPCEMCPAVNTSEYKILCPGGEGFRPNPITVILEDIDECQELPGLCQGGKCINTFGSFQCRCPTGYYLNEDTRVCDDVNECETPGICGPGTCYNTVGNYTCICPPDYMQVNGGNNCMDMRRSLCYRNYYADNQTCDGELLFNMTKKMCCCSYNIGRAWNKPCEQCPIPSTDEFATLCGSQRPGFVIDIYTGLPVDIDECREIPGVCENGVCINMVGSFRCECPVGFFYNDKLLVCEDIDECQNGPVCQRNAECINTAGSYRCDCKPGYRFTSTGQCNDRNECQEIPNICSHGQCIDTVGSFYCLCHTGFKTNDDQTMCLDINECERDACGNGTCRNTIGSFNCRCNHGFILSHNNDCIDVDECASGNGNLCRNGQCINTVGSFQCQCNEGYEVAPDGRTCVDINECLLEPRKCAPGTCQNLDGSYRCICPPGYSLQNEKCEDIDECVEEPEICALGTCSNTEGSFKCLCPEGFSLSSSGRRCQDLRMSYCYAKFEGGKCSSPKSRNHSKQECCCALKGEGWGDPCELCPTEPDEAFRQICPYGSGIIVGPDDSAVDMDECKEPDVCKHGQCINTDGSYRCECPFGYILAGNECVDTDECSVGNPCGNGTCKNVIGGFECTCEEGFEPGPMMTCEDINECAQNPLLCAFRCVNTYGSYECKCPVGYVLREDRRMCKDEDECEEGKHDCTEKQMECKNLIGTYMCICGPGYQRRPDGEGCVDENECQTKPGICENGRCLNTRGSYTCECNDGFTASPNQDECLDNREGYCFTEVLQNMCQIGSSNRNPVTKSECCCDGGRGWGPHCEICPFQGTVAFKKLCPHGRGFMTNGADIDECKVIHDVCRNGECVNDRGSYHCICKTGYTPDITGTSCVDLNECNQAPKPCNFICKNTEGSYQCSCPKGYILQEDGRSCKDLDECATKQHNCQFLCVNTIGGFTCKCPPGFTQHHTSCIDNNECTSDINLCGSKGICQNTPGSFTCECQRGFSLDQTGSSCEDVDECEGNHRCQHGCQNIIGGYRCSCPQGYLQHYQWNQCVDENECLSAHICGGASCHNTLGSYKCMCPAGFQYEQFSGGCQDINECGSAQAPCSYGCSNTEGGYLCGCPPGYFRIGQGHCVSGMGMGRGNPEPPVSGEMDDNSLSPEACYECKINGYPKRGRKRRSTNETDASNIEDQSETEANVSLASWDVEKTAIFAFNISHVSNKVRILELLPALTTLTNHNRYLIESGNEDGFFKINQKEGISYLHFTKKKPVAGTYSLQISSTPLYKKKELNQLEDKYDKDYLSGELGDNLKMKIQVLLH
Sequence of human insoluble skin elastin (P15502 27-786): as the sequence (P15502 27-786) above

| Substance | cleavage fragments, fibronectin Western blot of supernatants [1] | cleavage fragments, fibrillin-1 Western blot of supernatant and ECM [2] | radioactivity increase over background [3] [fold for skin elastin] | radioactivity increase over background [4] [fold for aortic elastin] |
| --- | --- | --- | --- | --- |
| Granzyme A | supernatants treated with granzyme A for the indicated times were probed for fibronectin and several fragments were observed | showed fibrillin-1 cleavage fragments in the GrA supernatant, GrA ECM | – | – |
| Trypsin | – | showed fibrillin-1 cleavage fragments in the GrA supernatant, GrA ECM, Trypsin supernatant, and Trypsin ECM; also recorded: showed fibrillin-1 cleavage fragments in the GrB supernatant, GrB ECM, Trypsin supernatant and Trypsin ECM | – | – |
| elastase | – | – | 14.9 | 7.7 |
